Measured values published in paper PMC4760936 (PLoS ONE, 2016).

Molecular target: staphylococcal enterotoxin B (Staphylococcus aureus, strain , UniProt P01552)
Test: SPR; ProteOn XPR36; […] (10 mM acetate pH 5.0); […]; Langmuir model
Settings: both partners purified

Sequence of staphylococcal enterotoxin B (P01552 28-266): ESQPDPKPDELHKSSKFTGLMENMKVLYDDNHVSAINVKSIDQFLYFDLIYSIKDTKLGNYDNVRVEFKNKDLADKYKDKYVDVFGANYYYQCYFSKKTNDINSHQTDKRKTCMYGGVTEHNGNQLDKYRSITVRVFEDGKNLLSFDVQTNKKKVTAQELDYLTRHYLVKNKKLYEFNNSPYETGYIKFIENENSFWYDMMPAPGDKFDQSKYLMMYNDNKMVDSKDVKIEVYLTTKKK

Binder | Kd | koff | kon
sdAb D9 (VHH, also called Class C exemplar) VHH: EVQLQASGGGLAQAGDSLRLSCAASIRTFGSYAMGWFRQAPGKEREFVAAISWSGGDTYADSAKGRFTISRDNAKNMMYLQMNSLAPEDTAVYFCAIVEAKYYISKDARDYGYWGQGTQVFVSS | 0.11 nM | 0.00028 s⁻¹ | 2.5e+06 M⁻¹ s⁻¹
sdAb E2 (VHH, also called Class A exemplar) VHH: EVQLQASGGGLVQAGGSLRLTCAASGRTFGSYAMGWFRQAPGKEREFVAAISWSGGDTYADSVKGRFTISRDNAKNTVYLQMNSLAPEDTAVYSCAAVGARYYISKDAKDYGYWGQGTQVTVSS | 0.27 nM | 0.0035 s⁻¹ | 1.3e+07 M⁻¹ s⁻¹
